“Also recorded” adds a separate entry of the source.
Tests used:
ARH-77 tumors = test: Subcutaneous scid/ARH-77 xenograft, established (palpable tumor) model; conditions: IgG B11 even at 0.2 mg/kg (100-fold lower dose than rituximab)
Protocol: Mice were anaesthetized with a mixture of sevofluran and oxygen prior to myeloma cell inoculation and 1-5×10^6 myeloma cells were then subcutaneously injected in a volume of 100 μl into the left flank. Treatment with antibodies by intraperitonial (i.p.) injections was started either the day after cell inoculation (prophylactic model) or when tumors reached a size of approximately 100 mm^3 (established model). Antibodies were administrated in PBS in a total volume of 200 μL. Treatment with PBS or isotype control was used as control. Tumors were measured with a digital calliper and the tumor volumes were calculated according to formula: width^2×length×0.52. Animals were sacrificed when the tumor sizes reached the ethical limit of 1.5 cm. Surviving mice were sacrificed after a maximum of 5 months. Blood samples collected from the vena cava were centrifuged at 2500 g for 15 min to obtain serum and the samples were stored at −20° C. Tumors were removed for immunohistochemistry, snap frozen and were kept at −85° C.

ARH-77 cells = test: Disseminated scid/ARH-77 model of multiple myeloma; type: in vivo, scid mice; conditions: i.v. on Days 7, 10, 13, 16; antibody 2 mg/kg, bortezomib 0.5 mg/kg; vs control
Protocol: ARH-77 cells or RPMI-8226 were injected intraveniously into the SCID mice. (FIG. 6A) ARH-77 model. Animals received intravenous injections with antibody at 2 mg/kg or bortezomib (Velcade) at 0.5 mg/kg on Days 7, 10, 13, and 16 (as indicated by arrows in the graph). (FIG. 6B) RPMI-8226-model. BI-505 or control mAb was administered i.v at 2 mg/kg, twice weekly for 8 weeks, bortezomid, at 1 mg/kg, once weekly for 8 weeks, lenalidomide p.o with 2 mg/kg for 2 cycles consisting of 5 days of treatment and 2 days of wash out, melphalan i.v at 3 mg/kg, once weekly for 8 weeks, and dexamethasone (DXH) at 6 mg/kg/inj 3 times/week for 2 consecutive weeks. There were 6-10 mice per treatment group. Statistical significance was calculated using Log-rank Graphpad Prism software and determined at ***p<0.001. (FIG. 6C) To study the ICAM-1 level on human cells, the cells from different organs were stained and gated for CD38+/mCD45−/BI-505+. Left panel indicates the percentage of BI-505 positive cells in CD38+/mCD45 population and right panel the mean fluorescent intensity of the positive cells.
The anti-myeloma effect of BI-505 was examined in a disseminated model of multiple myeloma. The early and advanced disseminated model of multiple myeloma was performed at Oncodesign, Dijon, France. Briefly: 1×10^6 (early) or 5×10^6 (advanced) ARH-77 tumor cells in 200 μL of RPMI 1640 were injected intravenously (i.v) into the caudal vein of female scid mice (D0). Tumor cell injections were performed twenty four to forty eight hours after a whole body irradiation of mice (1.8 Gy, ^60Co, INRA, BRETENNIERES). The treatment was started at D5 (RPMI-8226 model) or D7 ([…] model) except alkeran which was administered at D10. B11 or control mAb was administered i.v. at 2 mg/kg, twice weekly for 8 weeks, bortezomib, at 1 mg/kg, once weekly for 8 weeks, lenalidomide p.o with 2 mg/kg for 2 cycles consisting of 5 days of treatment and 2 days of wash out, melphalan i.v. at 3 mg/kg, once weekly for 8 weeks and dexamethasone at 6 mg/kg, injected 2 consecutive weeks.
The disseminated model of scid/ARH-77 is a well-established experimental model that resembles human multiple myeloma disease progression and disease manifestation in many respects (33). We utilized this model to further characterize IgG B11 anti-myeloma activity (FIG. 6A). Intravenous injection of irradiated scid mice with 1×10^6 ARH-77 cells was previously shown to result in their dissemination and establishment in mouse bone-marrow, and resulting osteolytic bone-lesions and hypercalcemia, and ultimately, in animal paralysis or difficulty of breathing at which time animals were immediately sacrificed. […]

OPM-2 myeloma cells = test: Subcutaneous myeloma xenograft, OPM-2 (ICAM-1 negative); type: in vivo, scid mice; conditions: 2 mg/kg twice weekly i.p.; ICAM-1 negative cell line
Protocol: Antibody treatment with 2 mg/kg BI-505 or control IgG1 was started at Day 1 and was continued on a twice-weekly intraperitoneal dosing regimen. Mice were sacrificed when tumor sizes reached the ethical limit.

PBMC = PBMC cytokine release; type: cell-based
human FcγRIIIa = target: T1, human FcγRIIIa (Homo sapiens, UniProt P08637); test: Biacore binding of BI-505 isotype variants to human FcγRIIIa
T1 construct: made in house; host or cells: HEK293E (transient)
Protocol: His-tagged human FcγRIIIa or mouse FcγRIV were expressed transient in adherent HEK293E cells, purified using Ni-NTA chromatography and characterized using SDS-PAGE and/or Biacore. Surface plasmon resonance (SPR) measurements were perfomed using a Biacore 3000 instrument. Goat α-human-F(ab)′2 F(ab)′2 fragment (Jackson laboratories) was immobilised with a CM-5 chip using a standard amine coupling protocol. IgG1 B11, Iga4 B11, or 297Q B11 were diluted to 15 and 60 μg/mL respectively and added to the surface at […] for 3 min. His tagged human FcγRIIIa or mouse FcγRIV were pre-incubated with an α-HIS antibody (R&D Systems) at a 2:1 molar ratio before addition to the chip surface, […], 1 min. After each cycle the surface was regenerated twice with glycine buffer pH 1.7.

[1] = test system: ICAM-1 expressing tumor cell lines; test: Complement-dependent cytotoxicity in tumor cell lines; type: cell-based; conditions: panel of ICAM-1 expressing tumor cell lines; human serum
Protocol: Target cells were harvested and incubated in RPMI medium with antibodies at 5 μg/mL or at titrated concentrations between 0.01-100 μg/mL for 60 min on ice. Cells were thereafter washed and resuspended in cold medium before dispension into flow cytometry tubes. Treatments were performed in triplicates. Human serum, normal or heat-inactivated, (Sigma, Sweden) was added to tubes and the samples were incubated for 2 h at 37° C. After completed incubation ToPo-Pro-3 was added at a final concentration of 0.3 μM and cells were analyzed for membrane permeabilization using flow cytometry.

[2] = test system: HUVEC and HMVEC endothelial cells; test: PCD in normal endothelial cells; type: cell-based; conditions: resting or activated (IFN-γ) cells
Protocol: Target cells were seeded in 96-well culture plates at a density of 2×10^6 cells/mL culture medium. Titrated concentrations of IgG1 B11 or different negative and positive control antibodies were added to the cells, in the absence or presence of anti-human Fab fragment (Jackson ImmunoResearch) for cross-linking. The cells were then incubated for 16 hours at 37° C. in a humidified atmosphere of 5% CO2. The cells were harvested and stained for Annexin V-488/Propidium Iodide (Invitrogen, Sweden) and analysed using flow cytometer (FACS Calibur, BD Bioscience).

T1 sequence (P08637 17-254): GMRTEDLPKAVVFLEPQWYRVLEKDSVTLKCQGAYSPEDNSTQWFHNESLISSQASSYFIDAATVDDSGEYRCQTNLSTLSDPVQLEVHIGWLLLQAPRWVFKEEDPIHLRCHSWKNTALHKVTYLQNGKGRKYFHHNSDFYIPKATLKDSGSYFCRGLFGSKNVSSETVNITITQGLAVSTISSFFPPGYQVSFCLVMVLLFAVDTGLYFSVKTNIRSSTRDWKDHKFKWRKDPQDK

B1: IgG B11: fully human ICAM-1 antibody isolated from the n-CoDeR library; VH/VL sequences in FIG. 15 (SEQ ID NOs 8, 10) (antibody, V domains shown)
VH: EVQLLESGGGLVQPGGSLRLSCAASGFTFSNAWMSWVRQAPGKGLEWVAFIWYDGSNKYYADSVKGRFTISRDNSKNTLYLQMNSLRAEDTAVYYCARYSGWYFDYWGQGTLVTVSS
VL: QSVLTQPPSASGTPGQRVTISCTGSSSNIGAGYDVHWYQQLPGTAPKLLIYDNNNRPSGVPDRFSGSKSGTSASLAISGLRSEDEADYYCQSYDSSLSAWLFGGGTKLTVLG
modifications: B11 VH region; B11 VL region
- animal survival (ARH-77 tumors): prolonged animal survival
- tumor growth (ARH-77 tumors): significantly prevented tumor growth
- animal survival (ARH-77 cells): increased mean survival time
- time to symptomatic disease onset (ARH-77 cells): doubled
- tumor growth (OPM-2 myeloma cells): no effect on tumor growth; also recorded: did not affect tumor growth
- cytokine release (PBMC; added in solution, resting or lipopolysaccharide pre-stimulated PBMCs): did not induce or enhance cytokine release
- PBMC cytokine release (PBMC; immobilised by either protocol, or in solution with or without cross-linking reagent): induce PBMC cytokine release
- binding to human FcγRIIIa (human FcγRIIIa): bound to human FcγRIIIa
- induction of CDC [1]: did not induce CDC
- PCD induction in normal endothelial cells [2]: did not, however, induce PCD
